Experimental findings from publication PMC7545093 are described below.

In the assay the target is Vibrio cholerae type IVa pilus secretin PilQ, N-terminally deca-histidine tagged (Vibrio cholerae). Put plainly: cryo-EM structure.

In general, stoichiometry N refers to a count of units in the complex or per binding partner. Substance “Vibrio cholerae type IVa pilus secretin PilQ, N-terminally deca-histidine tagged (natural protein)” registered a stoichiometry N of 14.
